Data taken from the supplement of paper PMC10126150.
± gives the standard deviation of the averaged measurements.

System: ATP
Assay: switch fluorescence ratio, 500 uM ATP over buffer (Cy3 cluster intensity, sum of 5 cycles each) (fold (ratio)); higher = stronger signal-on switching upon ATP binding; sequences stand for … in TCGTCGGCAGCGTCAGATGTGTATAAGAGACAGTTTTTTTTTTTTTTTTTTTTTTTTT…TC
Details: aptamer strand: ATP DNA aptamer (quencher-CACCTGGGGGAGTATTGCGGAGGAAGG + anchor), 100 nM annealed; ATP concentration: 500 uM
Outline: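 After annealing to 100 nM quencher-labelled ATP aptamer, Cy3-labelled switching-strand clusters on a modified Illumina MiSeq flow-cell were imaged in selection buffer. A second image followed after 15 min with 500 uM ATP at 22 °C, and five such buffer/ATP cycles were done, each separated by NaOH stripping and re-annealing. The fluorescence ratio, averaged per switch-domain sequence, is summed target-cycle over summed buffer-cycle Cy3 intensity per cluster, with clusters outside 100-1000 RFU excluded.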
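Note: ATP exposure 15 min at 22 °C before imaging.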

Sequence | switch fluorescence ratio
AAGCCGGGGG | 0.987 ± 0.019
AAGCCTTTAG | 0.974 ± 0.047
AAGCGAACAT | 1.08 ± 0.076
AAGCGAGG | 0.9872 ± 0.0032
AAGCGCGAGG | 1.03 ± 0.022
AAGCGGCGGG | 1.01 ± 0.019
AAGCGGGAGC | 1.026 ± 0.0049
AAGCGGTATC | 1.03 ± 0.021
AAGCGGTCCG | 1.02 ± 0.025
AAGCTACGTG | 1.05 ± 0.013
AAGCTATCGG | 0.994 ± 0.016
AAGCTCCTTT | 0.968 ± 0.011
AAGCTCTGAG | 1.03 ± 0.017
AAGCTCTTGT | 1.01 ± 0.03
AAGCTGTAGC | 1.03 ± 0.048
AAGGAAAAGT | 1.01 ± 0.035
AAGGAAAATT | 0.973 ± 0.02
AAGGAAAGGT | 1.061 ± 0.0073
AAGGAAATGT | 1 ± 0.014
AAGGAAATTA | 1.01 ± 0.058
AAGGAACGGC | 0.963 ± 0.043
AAGGAAGCTT | 1.02 ± 0.1
AAGGAATACA | 1.07 ± 0.041
AAGGAGGCAA | 1.255 ± 0.0085
AAGGAGGGAC | 0.982 ± 0.011

Sequence | switch fluorescence ratio
AAGGAGGGGA | 0.978 ± 0.02
AAGGAGGGTT | 0.984 ± 0.025
AAGGAGGTCC | 0.97 ± 0.066
AAGGAGGTTT | 1.01 ± 0.031
AAGGAGTCGG | 0.987 ± 0.044
AAGGATAGTT | 1.01 ± 0.013
AAGGATCTAC | 1.01 ± 0.027
AAGGATCTGG | 0.977 ± 0.026
AAGGATGGTG | 0.957 ± 0.069
AAGGCAAAAT | 1.04 ± 0.029
AAGGCATGAT | 1.0128 ± 0.00018
AAGGCCCCGT | 1.02 ± 0.016
AAGGCCGGCG | 1.01 ± 0.017
AAGGCCTTGA | 0.988 ± 0.049
AAGGCGAGGG | 1.01 ± 0.015
AAGGCGGCAC | 1.05 ± 0.02
AAGGCGGGGG | 0.986 ± 0.016
AAGGCGTAG | 0.984 ± 0.1
AAGGCTAATG | 0.953 ± 0.011
AAGGCTTAAT | 1.006 ± 0.0063
AAGGGAATGG | 1.04 ± 0.046
AAGGGAGAGC | 1.03 ± 0.06
AAGGGAGAGG | 0.985 ± 0.013
AAGGGAGGAA | 1.02 ± 0.012
AAGGGATTAG | 1.01 ± 0.037

Sequence | switch fluorescence ratio
AAGGGATTTT | 0.999 ± 0.062
AAGGGCAGTT | 0.97609 ± 0.00084
AAGGGCATTA | 0.9891 ± 0.0096
AAGGGCGGGG | 1.01 ± 0.019
AAGGGGAATC | 1.01 ± 0.024
AAGGGGACGG | 1 ± 0.03
AAGGGGACTC | 0.974 ± 0.04
AAGGGGATAA | 0.99 ± 0.045
AAGGGGATGT | 1.03 ± 0.032
AAGGGGATTC | 1.07 ± 0.012
AAGGGGCACA | 1.0522 ± 0.00079
AAGGGGCATG | 1.001 ± 0.0025
AAGGGGCGGA | 0.97 ± 0.016
AAGGGGGTAT | 0.999 ± 0.043
AAGGGGTACA | 1.01 ± 0.02
AAGGGGTCGG | 1 ± 0.036
AAGGGGTCT | 0.992 ± 0.024
AAGGGGTTAA | 1.03 ± 0.022
AAGGGGTTTG | 0.969 ± 0.032
AAGGGTAAGT | 1.005 ± 0.0023
AAGGGTAATG | 0.9875 ± 0.0042
AAGGGTACCT | 1.018 ± 0.0077
AAGGGTCAGG | 1.02 ± 0.017
AAGGGTCCCG | 0.9735 ± 0.0027
AAGGGTCGCA | 1.03 ± 0.036

Sequence | switch fluorescence ratio
AAGGGTCTAA | 0.978 ± 0.037
AAGGGTGCTT | 1.018 ± 0.006
AAGGGTGTTG | 1.01 ± 0.017
AAGGGTTATT | 1.15 ± 0.16
AAGGGTTCAC | 0.9963 ± 0.0031
AAGGGTTCCG | 1.01 ± 0.047
AAGGGTTCGG | 1.03 ± 0.026
AAGGGTTGG | 0.99 ± 0.015
AAGGGTTGGT | 0.991 ± 0.028
AAGGTAACAA | 1.01 ± 0.051
AAGGTCACGC | 1.01 ± 0.024
AAGGTCAGCT | 0.991 ± 0.016
AAGGTCGCTG | 0.9861 ± 0.00072
AAGGTCGGCC | 0.966 ± 0.017
AAGGTCGTTT | 0.9768 ± 0.003
AAGGTCTAAC | 1.012 ± 0.0067
AAGGTCTGTG | 0.993 ± 0.014
AAGGTGGAAG | 1.003 ± 0.0046
AAGGTGGATA | 1.11 ± 0.032
AAGGTGGTGG | 1.04 ± 0.0016
AAGGTTACGT | 1.022 ± 0.0072
AAGGTTAGTA | 0.9924 ± 0.007
AAGGTTCATA | 1.01 ± 0.044
AAGGTTCTAG | 0.9895 ± 0.0026
AAGGTTGAGG | 0.973 ± 0.034

Sequence | switch fluorescence ratio
AAGGTTGGG | 0.989 ± 0.014
AAGGTTGGGA | 0.962 ± 0.039
AAGGTTTAAA | 0.982 ± 0.032
AAGGTTTCC | 1 ± 0.049
AAGGTTTTGG | 1.15 ± 0.24
AAGTAGACTG | 0.996 ± 0.11
AAGTAGGTGC | 1.13 ± 0.02
AAGTAGTGGT | 0.979 ± 0.025
AAGTATAATA | 1.01 ± 0.035
AAGTATCGTT | 0.999 ± 0.011
AAGTATGTCT | 1 ± 0.039
AAGTATTGTT | 1 ± 0.019
AAGTCAAGTA | 0.9581 ± 0.0054
AAGTCGGGGC | 1 ± 0.038
AAGTCTGTCT | 0.998 ± 0.054
AAGTCTTTGG | 0.9599 ± 0.0072
AAGTGAAGTT | 1.002 ± 0.004
AAGTGAATTA | 1.0037 ± 0.00073
AAGTGACAGG | 1 ± 0.022
AAGTGATTGT | 0.994 ± 0.028
AAGTGCAAGC | 1.04 ± 0.027
AAGTGCACGG | 1 ± 0.036
AAGTGGAAAT | 0.9962 ± 0.0019
AAGTGGAATG | 1.02 ± 0.03
AAGTGGGAAC | 1.02 ± 0.016

Sequence | switch fluorescence ratio
AAGTGGGCCC | 0.983 ± 0.013
AAGTGGGCTG | 0.981 ± 0.023
AAGTGGGGAG | 1 ± 0.024
AAGTGGGTCG | 0.9408 ± 0.0023
AAGTGGGTGG | 1.02 ± 0.021
AAGTGGTAAG | 0.996 ± 0.034
AAGTGGTACA | 0.968 ± 0.049
AAGTGTAAAA | 1 ± 0.038
AAGTGTCAGT | 0.977 ± 0.065
AAGTGTCATT | 0.9999 ± 0.0028
AAGTGTGCCT | 0.983 ± 0.01
AAGTGTGGGG | 1 ± 0.025
AAGTGTGGTA | 0.991 ± 0.018
AAGTGTGTTC | 0.999 ± 0.016
AAGTGTGTTT | 1 ± 0.031
AAGTGTTAGC | 0.995 ± 0.022
AAGTTAAGGC | 1.02 ± 0.013
AAGTTAAGGT | 1.005 ± 0.002
AAGTTAGGGT | 0.999 ± 0.021
AAGTTAGTGG | 1.01 ± 0.04
AAGTTATATG | 0.987 ± 0.0099
AAGTTATGGG | 1 ± 0.023
AAGTTCATAT | 0.965 ± 0.015
AAGTTGAAAA | 1.004 ± 0.0028
AAGTTGAATA | 0.985 ± 0.021

Sequence | switch fluorescence ratio
AAGTTGATGC | 1.011 ± 0.0027
AAGTTGCAGC | 1 ± 0.025
AAGTTGCTGT | 1.02 ± 0.063
AAGTTGGCAT | 0.977 ± 0.04
AAGTTGGGCA | 0.969 ± 0.039
AAGTTGGGTG | 1 ± 0.025
AAGTTGGTTA | 0.991 ± 0.026
AAGTTGTAAT | 1.014 ± 0.0013
AAGTTGTGCG | 0.986 ± 0.029
AAGTTGTTGA | 1 ± 0.028
AAGTTTAAAT | 0.999 ± 0.02
AAGTTTAAGT | 0.989 ± 0.013
AAGTTTAATT | 1.02 ± 0.012
AAGTTTAGTC | 1.03 ± 0.034
AAGTTTATAA | 1 ± 0.015
AAGTTTATGC | 0.977 ± 0.025
AAGTTTGAAT | 0.978 ± 0.013
AAGTTTGCTA | 1.01 ± 0.031
AAGTTTTAAG | 1 ± 0.021
AAGTTTTCTC | 0.951 ± 0.0028
AAGTTTTTGC | 1.01 ± 0.019
AAGTTTTTGT | 0.9997 ± 0.0081
AATAAACAGA | 1.02 ± 0.017
AATAAAGCCT | 1.15 ± 0.29
AATAAAGGGA | 0.9841 ± 0.0045

Sequence | switch fluorescence ratio
AATAAATCGT | 0.998 ± 0.024
AATAAATT | 0.9585 ± 0.0081
AATAAGCGCA | 0.993 ± 0.037
AATAAGGGAT | 1.01 ± 0.045
AATAAGGTTA | 0.984 ± 0.022
AATAATATTA | 0.975 ± 0.019
AATAATGTCG | 1.02 ± 0.06
AATAATTACA | 0.9987 ± 0.0094
AATAATTGGT | 1.01 ± 0.012
AATACATTCT | 1.05 ± 0.011
AATACCAAGA | 0.9889 ± 0.0067
AATACGAATA | 1.92 ± 1.2
AATACGGGCG | 1.008 ± 0.0056
AATACTAAGG | 1.04 ± 0.007
AATACTCGGG | 1.07 ± 0.033
AATAGAGGGA | 0.977 ± 0.045
AATAGCAGGC | 1.06 ± 0.028
AATAGCGGAA | 1 ± 0.015
AATAGCTATT | 0.986 ± 0.023
AATAGGAGGC | 1.05 ± 0.053
AATAGGCAAT | 1.16 ± 0.034
AATAGGGAGG | 0.979 ± 0.025
AATAGGGGAG | 1 ± 0.037
AATAGGGGGT | 0.996 ± 0.018
AATAGGGTGC | 1.07 ± 0.045
